{"source": "paper PMC2883962", "target": "prostate apoptosis response protein 4 (Par-4), endogenous in native colon cancer cells (human (endogenous in HT29 and SW480)) (UniProt Q96IZ0)", "sequence (Q96IZ0 whole entry)": "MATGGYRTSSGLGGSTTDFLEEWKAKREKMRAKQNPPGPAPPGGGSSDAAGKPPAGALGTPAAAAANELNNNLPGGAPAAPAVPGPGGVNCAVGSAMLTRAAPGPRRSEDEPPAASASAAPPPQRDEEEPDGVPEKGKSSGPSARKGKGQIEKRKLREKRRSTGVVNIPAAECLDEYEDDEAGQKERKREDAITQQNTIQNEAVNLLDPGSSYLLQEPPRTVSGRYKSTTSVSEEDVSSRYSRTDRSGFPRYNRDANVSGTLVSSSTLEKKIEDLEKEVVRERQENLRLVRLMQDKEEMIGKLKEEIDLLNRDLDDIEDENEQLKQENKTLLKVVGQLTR", "assay": "co-IP; Par-4 immunoprecipitated from lysates of native HT29 cells treated for 24 h with vehicle or 12.5 or 25 μM ISC-4 (AKT inhibitor); immunoprecipitates immunoblotted with PKA, NFκB p50 and 14-3-3 antibodies", "data": [{"substance": "14-3-3 (from UniProt P63104 1-245) (natural protein)", "values": [{"measurement": "fold decrease of Par-4 binding with ISC-4 against vehicle", "result": 3, "unit": "fold"}]}]}
